Test results taken from the DeepSol protein solubility set.

experiment: soluble on expression in E. coli; label from the status in PepcDB or PDB records

| Sequence | soluble on expression in E. coli |
| --- | --- |
| GPGSMTEHENTPRLELEAALGYSGNLPGSLVAHPDQQHLLYALGACIVIRDANDAESSEFFYGHNDKISCLTVSVSGRYVASGQVTHPGFQADVCIFDFAERRLIHRMLLHKVKVQALAFSLDEQYLASVGGPDDNTVVLWDVKTGRPLCGAPAHHTETKAIAFFNNNSEKLITGGVGSLLVWTVDLEQRKMNSVDINMGNMRRSVQTISIEKTDKYVYCGTTSGDVICAQLQQANVFKMQGPQKKLSGGILSTILTNTGDVLVGSGAGELQLLSKINLTVQNSATVNGGVTALALMGDNYYVGTKTSNLYFVNGGNFMTRLRLTCHSEAVQDVVFPHGFSSVFATCCDTDIRVWNANSCTELLRIEVSNRTCNCLQFSRDGSLIISGWSDGRIRAFGPQSGKLVFSVADAHKVEQGSRSHKVGGKVGVTSVCADNAGHRIITGGSDGLVRVWAIRGATCTLEASMKEHKAAVNAIVISHDDTECVTASDDGSCIVWDLTRYLRRNIMYRQTYFRALEYYVDDSQLITCGSDKCIVYWDSVDCHAIREVCGSRTAELNSLSLSPDGRFFVTGGNDRIVKVWDYDRGECIAVGLAHSCSITKVRVSPDGKKIVSVGDEGAVMVWNIAELAIEGL | not soluble |
| MGSDKIHHHHHHMEYEQLLQSELGELEIIREELQNKEYRGMIVKTAKDGTTIRTRLAKKTDKKTGYFVAFWEKDELGKNCPFDENDSADFLCIVVIDGDLNGLFVFPRQCLIEKGILTSEVGIGKMAARFYPSWCQDLNKTAEKTQAWQQVYFKNYSIRKEDH | not soluble |
| MPGQKQKGKKNVRRTKTRFELIEPSKGQLIAEVEDTHGGYPPRFSCKTVDGDIIIAPIQGSIMKGPKRVLVKKDNLVLLVPIDFTTGKEGTTSYYIHHVYTSEDRHQLEKKGFLEKKDKISDATKSTKVVFGVESSDKSLEKAKDEELDIDTI | not soluble |
| TTIVSVRRNGHVVIAGDGQATLGNTVMKGNVKKVRRLYNDKVIAGFAGGTADAFTLFELFERKLEMHQGHLVKAAVELAKDWRTDRMLRKLEALLAVADETASLIITGNGDVVQPENDLIAIGSGGPYAQAAARALLENTELSAREIAEKALDIAGDICIYTNHFHTIEELSYKAEFHHHHHH | soluble |
| MGSDKIHHHHHHVQLSENVLLLGNRHFNYFLVGKKEAAIIECGVSGGVYSFQKQWEKLPQKPEVKYLVAMHAHFDHVCGIPALQKMFPAAVLLASSPAEAVLKKAKIMENFFAQDEKMLDLLADEGIIPRGLQSPNVTEIALDKLIAEGDEIKLGGDLNIKVLDAPGHSPCSLACYLPAEQVMFISDACGFQISDEDIFPVFFQAYDIYLETIKRLMSYPSKLLAIPHERIWTGRNIDAFYRRALSSAEQAFNIIRDLLDQGWEDEKIEKELFARYYKGSLKIYTPENIQQCVQILLRRVKEKL | not soluble |
| SNAMQRANREHLEIISLEEISMLVSSDFDLPEVLQHVTAKVATQLKVSVCNIYLREGDEVVLAATHGFDPAFIGKIRIKIGDGITGSVARDGQYISLSRASQDPRYRYFPELQEEKYNSMLSFPIGDKKEVYGVINLNTTSIRSFHEDEIYFVSIIANLILTAIKLRQQVASSRKAAEASA | soluble |
| MGSAVIRVLSYNIRSMRDDTAALARVISACEPDLVLVQEAPRFFRWRKKLAPLASACGQVVLSGGATAAGPALLCSLRATVERTEDVLLPLTPGLHRRGFATAVVRFGRARLGVLSCHLSLQKNERYEQGGMLLDHLARLGTPHAIAGGDLNERPDGRTFKRLASELRDCWATAPWGAEYTSTPADPHQRIDAILATPGIEVLACGVPLGHPGVTEADLRAATDHLPVLAALRVPASLEHHHHHH | not soluble |
| MRRNRFLAPLLVAASLLATAPAHGQPAPAAVLASDEAQRIALDAYVYVYPLVVMDLSRRQDTGGKGPGHAPANTFAHERRLPQADFRRLPRPNFDMLRSSAWLDLSTGPVVISTPETHGRLYTLSVLDMWTDIFAVLGKRTTGTARGNHAIVPPGWTGVLPRGMHRIDAPTAQVQARLYVQTGGSSEYPGVHAVQDGFILTPLAEWNQQAQSVRLRSDPDLDALTPAQQQVEGMNAEDYFGYAAELLRKHAPHATDQPMLARLRRLGIAPGQQLAFARLPTTVQQALRHAVRNGPQALRDSLPATGSLANGWQADADGAGVYGNAYLRRAVTTQARLGASLPEDVTAMLLLADAAGRPLEGGQRYVLRFEADQLPPAGALWSLNAYDAQGYPVGNGFNRYALGDRDPVRYNPDGSLELYLQRDPPGPDDQANWLPTGEGAPGVILRIYLPQASVLAGRWVPPAARRVEAADDAAALEHHHHHH | not soluble |
| MGRVIFMGKTGCGKTTLCQALNNLEIKYKKTQAIELYDNAIDTPGEYMENRGYYTALIVTAADADIIALVYDCTSEENYIAPGFASMFCKEVIGIITKINLAKDKSEIEVAEERLNLAGVSKIFKVDTVDDVGIKELFNYLNKFLEHHHHHH | soluble |
| MSLNLLFTGASGFLGYNVLPLLKKKYSVETIGLTSQDDYIVNLAAEIPKLAGKYDVILHVAGKAHSLPKTEAEKRLFFDVNLQGTKNLCTALEQSGIPKSFIFISTVAVYGCDSGENITEEYPLNGTTPYALSKIKAEKYLEEWCAMHNVKLSILRPSLIAGPNPPGNLGAMIHGIKSGKYLSIAGGKAQKSVLMVQDIANLVPLLIEKGGIYNVCDSYQPSFRELEMVICKQLNKKLPLSIPYWFAKSMAVFGDCFGEKAPINSLKLRKITHSLTFSNEKAMRELGWKPMNVLKNFREGHHHHHH | soluble |
| MGSDKIHHHHHHMTGRRCERTTSPGTGGRLRAEPADFQVQEVPAYLPGGSGEYLYLHVEKTRHTTAHVVRELCAQLGVRDRDVGVAGLKDRHAVTTQWLSLPAKVEPRMGDFSLPGVRILETSRHTNKLGMGHLHGNRFVVRVRGAAGMAEQAGETLATLAQGGVPNYFGPQRFGLGGLNAEEGLRVLRGESELRDPRVRRFLTSSVQSAIFNALVSLRLEREVFDRLLTGDMAKKHDTGGVFLVEDAGAETPRAQRGEVSATGTLFGRKVKPLTADAGALEAEALALFGLSPQVFASRKGDRRLIRVFPAEAEVRPEDDGYVLAFTLPKGSFATSVLREVMKTEVDAPGAGPDTTDEGEAGDGE | not soluble |
| MSAKTKFKSPAFEPIHSAASGLFSVDAIPQETMRSFDTACLSSIKDLQPLEIKALREKLNVSQPVFARYLNTSVSTVQKWESGAKRPSGMSLKLLNVVQKHGLKVLV | not soluble |
| SSQTGEKGKFPDAAGYVGFANLPNQVHRKSVKKGFEFTLMVVGESGLGKSTLINSLFLTDLYPERYIPGAAEKIERTVQIEASTVEIEERGVKLRLTVVDTPGYGDAINSQDCFKTIIQYIDNQFERYLHDESGLNRRHIVDNRVHCCFYFISPFGHGLKPLDVEFMKAIHSKVNIVPVIAKADTLTLKERDRLKRRILDEISEHGIRIYQLPDADSDEDEEFKDFVPNRCIWSSLQFYQMHIIAITFIDIMFVFKKAAHVISTTIIMVKLNIKCQ | soluble |
| MVTPIAVVGPTASGKSALGIALAHKLDGEVVNVDSMQLYKGMDIGTAKLTVEEREGIAHHQLDVWDVTETASVARFQSDAVADVEDIMSRGKTPILVGGSMLYVQSLVDDWQFPPTDSAVRARFEARLADIGVEALHAELTQLDPEAAAVIESNDPRRTVRALEVIELTGQPFQASQPPKDAPPRWGTRIIGLKTTPEWLNPRIEQRTARMFEQGFVAEVEHLVQQGLIADSTAGRAIGYSQVLAAMAGEMTWEDAFERTVTGTRRYVRRQRSWFNRDHRVSWVDASGDPTAQALEILGLQLEHHHHHH | soluble |
| SKTENEEDVKPPESCHAMQLLFKSLEASERAKVEEELKKTKENEFTQRNEHHALRDITHGKVNNYSFGTRQARKLFPHYHPPTWLGNLYLPLRGMPHTGPGCYAAATDWNGLAYNLSKVPTSTKGYAIGARTAVRFKPISKDVTPYPGMYQKVDTLSEKHKKSFAPFNILMPRFRSAAKGDSYPGPGTYNPEMKSVPKVTWPMKFGSPDWSQVPCLEKRTLKAELSADKDFRKHRSRVAYFSLYYQ | soluble |
| MAKVYYEKDVTVNVLKEKKVAIIGYGSQGHAHAQNLRDNGFDVVVGLRKGKSWDKAKEDGFSVYTVAEAAKQADVVMILLPDELQPEVYEEEIAPNLQAGNSLVFAHGFNVHFDQVKPPVNVDVFLVAPKGPGHLVRRTFSEGGAVPALFAVYQDATGVATEKALSYADGIGATRAGVLETTFKEETETDLFGEQAVLCGGVTALVKAGFETLVDAGYQPELAYFECLHELKLIVDLMYEGGLENMRYSVSDTAQWGDFVSGPRVVTEDTKKAMGTVLAEIQDGTFARGWIAEHKAGKPNFYATNEKENEHEIEVVGRKLRGMMPFVQPRVKAGVK | not soluble |
| SLVMKASVDDDDSGWELSMPEKMEKSNTNWVDITQDFEEACRELKLGELLHDKLFGLFEAMSAIEMMDPKMDAGMIGNQVNRKVLNFEQAIKDGTIKIKDLTLPELIGIMDTCFCCLITWLEGHSLAQTVFTCLYIHNPDFIEDPAMKAFALGILKICDIAREKVNKAAVFEEEDFQSMTYGFKMANSVTDLRVTGMLKDVEDDMQRRVKSTRSRQGEERDPEVELEHQQCLAVFSRVKFTRVLLTVLIAFTKKETSAVAEAQKLMVQAADLLSAIHNSLHHGIQAQNDTT | soluble |
| MGSDKIHHHHHHMNDLSRSPYILEMRNVSKTFPGVKALDGINLKVKRGTIHALMGENGAGKSTLMKILYGIYTPDAGGELILDDKPFKPSAPIDAIRTGLTMVPQEISPAGNLTIADNFYLGREITRSKFFLNQKEMDCKTAEILNELGIPMDVTAKMSDVSVAKAQLVAIATAVSNDAKVIIMDEPTTALTEVEVEQLYKIIETVRQRGISIIFISHKLDEVFRVSDEITVIRDGQYVGTKLTSEVTKDELISMMVGRDMSEMFQRERIVISDEVVLEIKNFSRAGKYHDINFQVRRGEIFGIAGLVGAGRSEIVEGLFGYKLADSGEIYVHGEKADIKTPLDAMKYKIGFVTEDRKLTGLFLNLSITDNMIMPRMSPYLENFLVSVTKAQKSANAQKDKLKIKAPNVEVITNNLSGGNQQKVLLARWLLLEPDILILDEPTKGIDVGAKAELYKLMVELAKQGKSIIMITSDMLELLSMSDRVMVMHEGRVAGIIPQEELTQERVLELASGLGQV | not soluble |
| MRQIVPKVVVVGAGMGGLASAIRLARAGCEVTLLEAREAPGGRMRTLPSVAGPVDAGPTVLTLREVFDDIFEVCGQKLDHHLTLLPQPLLARHWWLDGSTLDLTTDLEANVEAVAAFAGAREARAFRRFHDLSARLYDAFDRPMMRAARPDLRAIATGALKAPRTWPALLPGMTLDRLLRLFFRDRRLRQLFGRYATYVGGTPYGAPGVLALIWAAEARGVWAIEGGMHRLALALARLADDQGVRLRYGAPVARILRQGGRATGVQLADGRTLPADHIVFNGDPAALLAGCLGDGPQDAVPEDRIHPRSLSAWVWSYAARASGPPLVHHNVFFADDPRREFGPIAAGQMPEDATLYICAEDRSGGQLPDGPERFEIIMNGPPGRPAKPEDFAQCRSRTFDRLRQFGLTFDPVPGETSLTAPSGFASLFPASQGSIYGLSPHGALASLKRPLARTALPGLWLAGGGAHPGAGVPMAALSGRHAAEAILADLASRSRLEHHHHHH | not soluble |
| MTVTSMLDNVLRIATRQSPLALWQAHYVKDALMATHPGLTVELVPMVTRGDVILDTPLAKVGGKGLFVKELEIALLEKRADIAVHSMKDVPVAFPDGLGLVTICEREDPRDAFVSNKYHSLDDLPAGSIVGTSSLRRQCQLAERRPDLIIRSLRGNVGTRLGKLDNGDYDAIILAVAGLKRLGLESRIRTALPPDVSLPAVGQGAVGIECRLDDARTQALLAPLNHSQTALRVTAERAMNTRLEGGCQVPIGSYAEIINGEIWLRALVGAPDGSVMVRGERRGSPEQAEQMGISLAEELLENGARAILTEVYNGETPA | not soluble |
| MHPRETIRETFVALIKAAKTVAGDNVFNMRDFNLFIETMPAINISTQSETIEDGHDFGLRRRVLTVDVECYATCEDGARFVDQLAWEVEEIFYANPNLNNTVETCRLQNIAFAFGDNGSLALHGAILTFDVTHITNIPCPDEGKATVGVVEPLVGFKPETGMGNKDKYHKIEGDHVRATR | not soluble |
